Patent US20230159961A1, “BIOSYNTHESIS OF CHEMICALLY DIVERSIFIED NON-NATURAL TERPENE PRODUCTS” (Board of Trustees of Michigan State University, priority 2019, published 2023)

B1: ArTPS3 (protein)
chain: MSLSFTIKVTPFSGQRVHSSTESFPIQQFPTITTKSAMAVKCSSLSTATVSFQDFVGKIRDTINGKVDNSPAATTIHPADIPSNLCVVDTLQRLGVDRYFQSEIDSVLNDTYRFWQQKGEDIFTDVACRAMAFRLLRVKGYEVSSDELASYAEQEHVNLQPSDITTVIELYRASQTRLYEDEGNLEKLHTWTSNFLKQQLQSETISDEKLHKQVEYYLKNYHGILDRAGVRQSLDLYDINQYQNLKSTDRFPTLSNEDLLEFAKQDFNFCQAQHQKELQQLQRWYADCKLDTLTYGRDVVRVASFLTAAIFGEPEFSDARLAFAKHIILVTRIDDFFDHGGSIEESYKILDLVKEWEDKPAEEYPSKEVEILFTAVYNTVNDLAEMAYIEQGRSIKPLLIKLWVEILTSFKKELDSWTEDTELTLEEYLASSWVSIGCRICSLNSLQFLGITLSEEMLSSEECMELCRHVSSVDRLLNDVQTFEKERLENTINSVSLQLAEAQREGRTITEEEAMSKIKDLADYHRRQLMQMVYKDGTIFPRQCKDVFLRVCRIGYYLYASGDEFTTPQQMMGDMKSLVYEPLNTSSS
modifications: Ajuga reptans
B2: SsSCS (protein, listed as Salvia sclarea)
chain: MSLAFNVGVTPFSGQRVGSRKEKFPVQGFPVTTPNRSRLIVNCSLTTIDFMAKMKENFKREDDKFPTTTTLRSEDIPSNLCIIDTLQRLGVDQFFQYEINTILDNTFRLWQEKHKVIYGNVTTHAMAFRLLRVKGYEVSSEELAPYGNQEAVSQQTNDLPMIIELYRAANERIYEEERSLEKILAWTTIFLNKQVQDNSIPDKKLHKLVEFYLRNYKGITIRLGARRNLELYDMTYYQALKSTNRFSNLCNEDFLVFAKQDFDIHEAQNQKGLQQLQRWYADCRLDTLNFGRDVVIIANYLASLIIGDHAFDYVRLAFAKTSVLVTIMDDFFDCHGSSQECDKIIELVKEWKENPDAEYGSEELEILFMALYNTVNELAERARVEQGRSVKEFLVKLWVEILSAFKIELDTWSNGTQQSFDEYISSSWLSNGSRLTGLLTMQFVGVKLSDEMLMSEECTDLARHVCMVGRLLNDVCSSEREREENIAGKSYSILLATEKDGRKVSEDEAIAEINEMVEYHWRKVLQIVYKKESILPRRCKDVFLEMAKGTFYAYGINDELTSPQQSKEDMKSFVF
B3: KgTPS2 (protein, listed as Kitasatospora griseola)
chain: MPDAIEFEHEGRRNPNSAEAESAYSSIIAALDLQESDYAVISGHSRIVGAAALVYPDADAETLLAASLWTACLIVNDDRWDYVQEDGGRLAPGEWFDGVTEVVDTWRTAGPRLPDPFFELVRTTMSRLDAALGAEAADEIGHEIKRAITAMKWEGVWNEYTKKTSLATYLSFRRGYCTMDVQVVLDKWINGGRSFAALRDDPVRRAIDDVVVRFGCLSNDYYSWGREKKAVDKSNAVRILMDHAGYDESTALAHVRDDCVQAITDLDCIEESIKRSGHLGSHAQELLDYLACHRPLIYAAATWPTETNRYR

Columns and labels:
[1] = tested on: Coleus forskohlii CfTPS2 and Salvia sclarea SsSCS; assay: coupled class II / class I in vitro assay with methyl-GGDP (C21) substrate; format: biochemical; settings: CfTPS2 and SsSCS used together; product structure similar to sclareol (FIG. 10)
Description: A typical high-throughput in vitro diTPS assay in lml contained 5 μg substrate, 200 μg purified enzyme (class II plus class I for labdanoid-type diterpenes, or class I for irregular diterpenes), and 10mM buffer with magnesium. Reactions are carried out for 1 hour at 16° C., followed by vortexing with an equal volume of hexane to extract the products into the organic phase, prior to removal for GC/MS analysis.
Reactions leading to novel compounds can be scaled up for structural elucidation. The scale-up procedure involved the same composition. However, in coupled assays of pairs of diTPS, the class II enzyme may be pre-incubated with substrate for two hours, before adding the class I diTPS.
Enzymes Coleus forskohlii CfTPS2 (SEQ ID NO:69) and Salvia sclarea SsSCS (SEQ ID NO:61) were coupled in an in vitro assay to ascertain whether the synthetic unnatural methyl-GGDP (C21) substrate can efficiently yield the corresponding C21 methyl-diterpene.

[2] = tested on: DgTPS1 (casbene synthase); assay: in vitro diTPS assay: casbene synthase DgTPS1 reacted with unGGPP, products by GC/MS; format: biochemical, Daphne genkwa; settings: product mass consistent with a methyl-derivative of casbene
Description: A conserved irregular, macrocyclic structure is consistent with the fragmentation pattern of the major fragments of casbene (FIG. 5C-5D).
To assess substrate tolerance of class II diTPS, substrates are screened against a panel of twenty-five enzymes. Recombinant diTPS were expressed heterologously in E. coli, purified, and reconstituted in in vitro assays with the substrate to be tested. The products from the enzymatic action on the substrate were analyzed structural elucidation and downstream functionalization.
In particular, pET28b+plasmids containing N-terminally truncated diTPS variants (having the plastidial targeting signal removed to generate pseudomature enzymes) are transformed into E. coli BL-21DE3-C41 OverExpress cells. Cultures are grown at 37° C. and 180 rpm until the optical density at 600 nm reached 0.3 to 0.4. Cultures are cooled to 16° C., and expression is induced at an optical density at 600 nm of approximately 0.6 with 0.2 mM isopropylthiogalactoside. Cells are collected and lysed before purification of the His6-tagged enzymes with Ni-NTA columns.
A typical high-throughput in vitro diTPS assay in lml contained 5 μg substrate, 200 μg purified enzyme (class II plus class I for labdanoid-type diterpenes, or class I for irregular diterpenes), and 10mM buffer with magnesium. […]

[3] = tested on: class I labdane-type diTPS; assay: class I labdane-type diTPS and tested substrates converted (Table 2); format: biochemical; settings: decalin-core diphosphate substrates that the enzyme converted, enzymes functionally expressed
From the text: Instead of accepting the acyclic GGPP, class I enzymes can use structurally diverse decalin-core diphosphate intermediates generated by class II enzymes. At this stage, additional cyclizations, double-bond-, hydride and alkyl shifts can occur, followed by either proton abstraction or quenching of the final carbocation through a water molecule.
All enzymes in Table 2 were functionally expressed. Microbial sequences were expressed as synthetic variants, expression optimized for E. coli. See also FIG. 7.

Molecule	Substrate (tested substrates converted) [3]	also measured
CC(C)=CCC/C(C)=C/CC/C(C)=C/CC/C(C)=C(\C)COP(=O)(O)OP(=O)(O)O [methyl-GGDP (C21)]	–	product formation in coupled enzyme assay [1]: new methyl-diterpene product
CC(C)=CCC/C(C)=C/CC/C(C)=C/CC/C(C)=C(\C)COP(=O)(O)OP(=O)(O)O [unGGPP]	–	conversion of substrate to product, detected by gas chromatography / GC-MS [2]: novel product with a shifted retention time
B1	PgPP, (+)-CPP, (+)-8-LPP, ent-CPP	–
B2	ent-, syn-, (+)-CPP, (+)-8-LPP, ent-8-LPP, KPP, 9-LPP	–
B3	ent-, syn-, (+)-CPP, (+)-8-LPP, ent-8-LPP, KPP, 9-LPP	–
